This is an account of results in the supplement of paper PMC11502859.
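Also: lentiviral eGFP-IRES-mCherry reporter pool sorted by FACS 96 h post-transduction, gated on mCherry-high cells, Illumina read counts normalized per million, median across four biological replicates.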

The subject of the data set is HEK293T. The data set is described as follows: median enrichment of reporter reads in eGFP-reduced (low/intermediate) vs eGFP-high sorted cells (eGFP-extension fusion abundance) (ratio); higher = stronger loss of eGFP-fusion protein abundance (more destabilising extension).
For the substance “SIILSPFGSCVERECEIYIISFWERLVLDAP [HSP90B1]”, the median enrichment was determined as 10.5.

RCPGDVTDSWQSHGPRLPKSVCWQLFP [S100P]: the median enrichment was determined as 8.26.

Regarding YEPEYSR [GBP4], the median enrichment was 0.833.

Regarding QLYHYSRSSSQHHLLATWDV [GCG], the median enrichment amounted to 16.8.

For the substance “QGPAPRTDSTRKPNDVPARRPRRAAFPLVLEKLEHPVTALFAMGTGTLFYTMLPPSPP [CARM1]”, the median enrichment was determined as 3.47.

With QSFTSKFYLLCLPLLSRRSCLLPGSLTCSLS [LRRC1], the median enrichment was 18.

Regarding “QGLEGQEVGVRSPYSACCPGCAAQLDSASQHLPPRSFLLFIPIFTPKTSLSLFTPPKPLSHAGPLKPQLPTILREHPLPSLPF [GSTM2]”, the median enrichment worked out at 5.62.

In the case of KRQK [CCR2], the median enrichment was found to be 0.621.

For the substance “LKNKSPLQNTPPSHSAPQLPTTARLSSFASVASPALHALAGTVAAAFSCSVMPSSCLKQKKIMHCVF [STXBP1]”, the median enrichment was found to be 6.42.

For YYYYYYY [Tyr07], the median enrichment amounted to 3.18.

As to RDKVRVFSSYILSQATLQDVAKAYIFP [IPCEF1], the median enrichment was found to be 3.59.

Take SHFKLTL [PTGIR]: the median enrichment stood at 1.1.

Turning to SLTVFHKEDV [ATP2A2], the median enrichment amounted to 0.983.

As to “SWPPPFPPPAPSPSPTRQLIPGLLSDPFSRGTSGQCPTTHTHHHLTGSSLISDNPHPHCFWGSLSHLSHPVSCLCLSWCLSGL [CCDC97]”, the median enrichment came to 5.65.

Consider “SCVGHPTRHPSSLRRPVGRQGSRGFALLLSSRVMTLLSISSHYSPCLALRAALLSSQAAPVPSPSTLEWSSSACFPSHRPATT [RAB15]”, for which the median enrichment amounted to 5.5.

With QTLPFLFEFFRGKG [PCBD1], the median enrichment worked out at 2.9.

As for RVAYFMQS [PDE5A], the median enrichment is 7.9.

WPPPAPTRPRRALSIS [SLCO4A1]: the median enrichment was 9.47.

QRQ [GNB1]: the median enrichment came to 0.344.

On to RSHFCQMLPSTINALGGRRGRQ [ETHE1], for which the median enrichment came to 12.6.

Consider CGSCGCPCCVALYDCC [NDUFB10], for which the median enrichment was found to be 4.77.

Take RLAACLRNPAFFRR [MAPK10]: the median enrichment came to 12.2.

Regarding “YKWQQNLTPRPANSASLVTLFWLLDGFHSSLGFVCEYCLLCFVFNCNG [OR7E24]”, the median enrichment worked out at 6.78.

In the case of “SGLLALTLQPTLAVWPSPGSFPAPLPLFPVLLNSPSWRVQALGMGGTRPHSFHRALRPDTADQPHSAQEAASGVGAQRGTAAS [BAP1]”, the median enrichment was found to be 1.74.

Consider SDQGLGLRVGGLVEHCNPLNK [LRG1], for which the median enrichment was found to be 1.34.

For the substance YAVGTESEYF [GFRA2], the median enrichment came to 0.617.

On to WACYFHGVCQ [OR5D18], for which the median enrichment was found to be 4.25.

As for RKGGSYSQAAM [HLA-G], the median enrichment was determined as 0.441.

In the case of “VAANTPASGLLVAAPGDTPAKPTRWRGPPWSLATLPASAQGPLPSPGHLLCRRHSSQKPLSQKRLVFKKSRFFAPEVSFRGRM [AP1M1]”, the median enrichment was determined as 4.38.

Regarding RMKSTASE [SERPINI2], the median enrichment came out at 0.64.

In the case of CHLRNI [MLLT10], the median enrichment worked out at 1.38.

Regarding LECRSAGRREE [CNPY1], the median enrichment stood at 12.4.

For QEDFKVNFPSLFLN [CSN2], the median enrichment came out at 0.654.

For EAWLPPESCSLKLGF [POU2AF1], the median enrichment turned out to be 0.528.

Consider “WGSAQISVVRKPVPLGFSPHTTACRTLEWTQSSH [CA6]”, for which the median enrichment is 7.98.

Regarding NNN [Asn03], the median enrichment was 0.227.

For RLNICSVLKLMCFVGV [FBXL4], the median enrichment is 10.3.

For the substance YCPGVCCLAHMSLL [CLSTN2], the median enrichment came out at 19.2.

In the case of “WGGLGCQCCRDPGCPGLWGRTGSPHPPTPAKGGASPESPPVRPSEPTSHPPSSQGVRAPDGPGRHPGGPATAGEGT [TMEM184A]”, the median enrichment was 2.58.

For the substance “YPGASWLRLAPSGHLPWSDPFQMKCGDIDLFFFFFETEFHSCCPVWSAMAQSQLTATSASWVQAILLPQPPK [SPC24]”, the median enrichment came out at 7.7.

As for “LAASRATSPHVGCPSWGREGQSVGWLGRGLALVGQPTPQPERA [RBM10]”, the median enrichment was found to be 8.96.

Consider “CQLLHILGPCLFSQDRLLKAEEPVLGAPSQTPKTCFHVPRSLLTSPNKGP [PSENEN]”, for which the median enrichment turned out to be 26.4.

As to KQWQQLGLETSRWCWDHLSLLLLASHSL [PACRG], the median enrichment turned out to be 7.92.

Turning to QKKPL [NFATC2], the median enrichment is 0.453.

On to LVLCS [PIGX], for which the median enrichment came to 9.44.

As for MMMMMMMMMM [Met10], the median enrichment was 10.8.

As to LTAPPPPLSPGPGG [VMO1], the median enrichment was determined as 8.99.

In the case of “SDFYLNRETYARTVWTNSRPRHGARRPAGLPPLDGRGKDGRELHCESAARAAGGWDWSSLYCR [DOT1L]”, the median enrichment came out at 6.88.

Turning to “ESHMRRTACSDQRAQRPEDKSGGDSMGMGVGCLRERTHGLGRGERCMGITFARAAYLKVTVSSGTAGDRYLLLQEINYPENST [LEXM]”, the median enrichment came to 5.93.

In the case of LGALPGTGSLTSQD [KIF19], the median enrichment was 0.309.

Turning to “RCKPPYESTVADRRRGGCCSCRSINMCCMSFLLFF [LMO7]”, the median enrichment was determined as 22.4.

As for LHVKTFILVSTVFQ [SCGB1D2], the median enrichment stood at 6.88.

As for SEAPAANTMQARCVSELF [METTL2B], the median enrichment was 0.81.

In the case of QRRQMQTKAT [TWSG1], the median enrichment was 0.373.

As to LLL [Leu03], the median enrichment is 4.12.

With RDVQDL [ZMPSTE24], the median enrichment worked out at 0.177.

Consider SNNQQYSRSNQHHHVIMVLWHICNIKILN [ACOX2], for which the median enrichment amounted to 5.11.

Consider “YSQPQLMPSQSQPPVTPSQSQPRVTPSQSQPHVTPYRSKSGKQKQSVPIPKTVSRKGTLKK [ADAM29]”, for which the median enrichment stood at 0.413.

With GGGSRSDQLIAHMLCLDME [HNRNPAB], the median enrichment was 3.08.

As to YLTLPIS [OR5AS1], the median enrichment amounted to 15.4.

As for “LPVGCFTSTPAPPASNAHSTPNTTPCPTNAHSRAW [C1QB]”, the median enrichment was determined as 1.02.

Take WYTF [PNISR]: the median enrichment was 2.74.

As for LPF [SDHD], the median enrichment stood at 0.443.

Regarding QELARQLPLLHPQ [TECTB], the median enrichment amounted to 0.3.

LETIMKKRVHISISKS [CTLA4]: the median enrichment was 37.7.

“SVIPGLSTPASPPAAGTALTLLSDPHSFPEMLRMFISPAPDPMSPGLRVCFPHIGLTVSL [KLK5]”: the median enrichment came out at 12.1.

Take TTTT [Thr04]: the median enrichment was found to be 0.324.

YRHQVW [SMAD3]: the median enrichment amounted to 1.22.

In the case of YLKKTVLSAMTLYIKGVLFC [PLAAT3], the median enrichment was 13.8.

With WCLHHLCSCSLKGSPYSKPPKLGDPSSP [MPIG6B], the median enrichment amounted to 6.53.

As to “YVLCCIPFSFLQMTMNFKLWGQCCNIFTFSNSQNLKNVKLCLVCFS [INPP4B]”, the median enrichment stood at 5.86.

Regarding “RILSLIPATPLLISGGRTVSELFVSIGHLSLVVKDWLMITMHRKTFRRKGECFVDHFGFLFCVWQF [EEF1A1]”, the median enrichment was 5.71.

Regarding “RLWSRHPAEWGPRGCQLGALPLAATLWSGRVLHHQEDPILSSVSCPSCCGMLSTEPTAHLPLHLPESVSICNKRQPRLPRAVS [INAFM1]”, the median enrichment worked out at 3.36.

RENQHP [CRYBG3]: the median enrichment was found to be 0.514.

Turning to LNRKKSPK [MDN1], the median enrichment was 0.34.

“LNAFLASSAGGLSLGRGDSTHHWNFADRKRFLFSVL [KMT2C]”: the median enrichment was found to be 16.9.

RMNTCQE [OR52N4]: the median enrichment was 0.48.

In the case of “KCYRLNDSASRLPKSKALFRAAHSFPQKSS [HIST1H4E]”, the median enrichment came to 8.92.

In the case of “RFQIWRRPGKPTEVQHVICLKVVLLHHIDDPTTSNMGHSIHFNISIFLYHFCYLSV [ARPC5]”, the median enrichment turned out to be 6.81.

As for QELTQQKRTASIPHAFTHQIILKNSDPQVF [TOR3A], the median enrichment came out at 13.3.

For “QPPARQRGHRRASPECRPWVAGPGSLVPPGGHRHRLAWQAGPLCHPLLGACRPFPSTPQVFQALLPQFPKWNHLTSAAPDLPG [SECTM1]”, the median enrichment turned out to be 4.68.

Consider “QRHASFTISGKRTHCAYSDCRVYKRQPFGYYCCKVQILQASSDICIYCHYCLWKKQGIKVPVHLMYYFL [NEUROD1]”, for which the median enrichment turned out to be 14.6.

For YYYY [Tyr04], the median enrichment came out at 4.17.

As to YDVMLAGSPPLDPDSYG [SH3GL2], the median enrichment amounted to 0.593.

With RSGLFQ [IQCF1], the median enrichment turned out to be 0.394.

For the substance “REPKGDWALWQLLSHTVDHSSPSCSLSSSECGW [TRIM66]”, the median enrichment was determined as 12.8.

Consider CSQVGFA [TUSC3], for which the median enrichment came to 0.572.

Regarding EKSYMAKRSRSKFRSHSQGNQYLPI [SNX24], the median enrichment was 1.3.

Regarding LSGLCT [LCE1A], the median enrichment came to 0.479.

For YHQNLCQNTKECA [TLL1], the median enrichment amounted to 0.773.

As to YAKSRCTQHVLGMQPQEVPDLKQPDSYLA [GREM1], the median enrichment worked out at 22.9.

In the case of WILAELLCT [COPS4], the median enrichment was determined as 5.2.

Consider RLHRNCW [OR2Z1], for which the median enrichment was determined as 3.02.

For the substance QQQQQQ [Gln06], the median enrichment stood at 0.198.

LFSTEIQNISLTALRCVC [NIPSNAP3B]: the median enrichment was determined as 6.41.

As for LGP [COLQ], the median enrichment is 0.326.

Regarding NNNNNNNN [Asn08], the median enrichment is 0.184.

With LLLPLGFTSQTQPLEQPDPAE [CHAT], the median enrichment came out at 6.49.

For the substance “RGPELARPRTPNTIFAIQPQAMGTAFLPRGPGRPQRLLQARTLVHYTPCLGAEILQQKDAIFFVSFFSIFFSKESIFQYVECV [NFYC]”, the median enrichment is 3.94.

In the case of “LLECEISVGQTTRVCVCVLMESSLVVSSSFFLVTVLLNLIK [PET117]”, the median enrichment came to 9.64.

For the substance LKKKKKKALAFSCLFC [PCDH17], the median enrichment was determined as 25.4.

Take SKILVLLNYLI [TIPARP]: the median enrichment amounted to 5.53.

Turning to SESTGSSQTYRCPAR [FAM221B], the median enrichment stood at 0.476.

SRNMSSQGIETALNSLTSRL [PCLO]: the median enrichment amounted to 3.6.

Consider EVHTVCHRMAHVIAHFCVDMVLV [ATP5IF1], for which the median enrichment is 11.
